The values below are quoted from earlier work in patent publication US20250341526A1, “NOVEL DYES” (Quantum-Si Incorporated, priority 2024, published 2025).

B1: PS433: ClpS amino acid recognition protein, SEQ ID NO: 56 (protein)
chain: MMSSLKECSIQALPSLDEKTKTEEDLSVPWKVIVLNDPVNLMSYVVMVFRKVFGYNENKATKHMMEVHQLGKSVLWTGQREEAECYAYQLQRWRLQTILEKDD
B2: PS372: ClpS amino acid recognition protein, SEQ ID NO: 5 (protein)
chain: MAFPARGKTAPKNEVRRQPPYNVILLNDDDHTYRYVIEMLQKIFGFPPEKGFQIAEEVDRTGRVILLTTSKEHAELKQDQVHSYGPDPYLGRPCSGSMTCVIEPAV
B3: PS430: ClpS amino acid recognition protein, SEQ ID NO: 53 (protein)
chain: MQPFEETYTDVLDEVVDTDVHNLVVFNDDVNTFDHVIETLIDVCKHTPEQAEQCTLLIHYKGKCSVKNGSWEELVPMRNEICRRGISAEVLK
B4: PS371: ClpS amino acid recognition protein, SEQ ID NO: 4 (protein)
chain: MATETIERPRTRDPGSGLGGHWLVIVLNDDHNTFDHVAKTLARVIPGVTVDDGYRFADQIHQRGQAIVWRGPKEPAEHYWEQLQDAGLSMAPLERH
B5: PS425: ClpS amino acid recognition protein, SEQ ID NO: 48 (protein)
chain: MTHYFSNILRDQESPKINPKELEQIDVLEEKEHQIILYNDDVNTFEHVIDCLVKICEHNYLQAEQCAYIVHHSGKCSVKTGSLDELVPKCNALLEEGLSAEVV
B6: PS426: ClpS amino acid recognition protein, SEQ ID NO: 49 (protein)
chain: MSIIEKTQENVAILEKVSINHEIILYNDDVNTFDHVIETLIRVCNHEELQAEQCAILVHYTGKCAVKTGSFDELQPLCLALLDAGLSAEIT
B7: PS423: ClpS amino acid recognition protein, SEQ ID NO: 46 (protein)
chain: MAPTPAGAAVLDKQQQRRHKHASRYRVLLHNDPVNTMEYVVESLRQVVPQLSEQDAIAVMVEAHNTGVGLVIVCDIEPAEFYCEQLKTKGLTSSIEPED
B8: PS424: ClpS amino acid recognition protein, SEQ ID NO: 47 (protein)
chain: MSVETIEKRSTTRKLAPQYRVLLHNDDYNSMEYVVQVLMTSVPSITQPQAVNIMMEAHNSGLALVITCAQEHAEFYCETLKGHGLSSTIEPD
B9: PS434: ClpS amino acid recognition protein, SEQ ID NO: 57 (protein)
chain: MSRLPWKQEAKFAATVIIDFPDATLEAPTIEKKEATEQQIEMPWNVVVHNDPVNLMSYVTMVFQRVFGYPRERAEKHMLEVHHSGRSILWSGLRERAELYVQQLHGYLLLATIEKTV
B10: PS432: ClpS amino acid recognition protein, SEQ ID NO: 55 (protein)
chain: MIGVEARTSSAPELAIETEIRLAGLWHVIVINDPVNLMSYVVMVLRKIFGFDDTKARKHMLEVHENGRSIVWSGEREPAEAYANTLHQWHLSAVLERDETD
B11: PS427: ClpS amino acid recognition protein, SEQ ID NO: 50 (protein)
chain: MSTKEKVKERVREKEAISFNNEIIVYNDDVNTFDHVIETLIRVCNHTPEQAEQCSLIVHYNGKCTVKTGSMDKLKPQCTQLLEAGLSAEIV

The test system of the data set is amino acid at a terminal position of a polypeptide. Conditions: Table 1, ClpS proteins; amino acid at terminal position; inferred from literature and/or demonstrated by the inventors; cited from earlier work.
With B1, the “Binding Pref.” value was “F, Y, W, L”.

With B2, the “Binding Pref.” value is “L, I, V”.

For B3, the “Binding Pref.” value is listed as “F, Y, W, L”.

On to B4, for which the “Binding Pref.” value was “F, Y, W, L”.

For B5, the “Binding Pref.” value is listed as “F, Y, W, L”.

As for B6, the “Binding Pref.” value is “F, Y, W, L”.

In the case of B7, the “Binding Pref.” value is “F, Y, W”.

Consider B8, for which the “Binding Pref.” value is recorded as “F, Y, W”.

For B9, the “Binding Pref.” value is given as “F, Y, W, L”.

Turning to B10, the “Binding Pref.” value is on record as “F, W”.

Regarding B11, the “Binding Pref.” value is reported as “F, W”.
